Results on two molecules are retold here after patent US20220174981A1, “PROLINE TOLERANT TRIPEPTIDYL PEPTIDASES AND USES THEREOF” (DuPont Nutrition Biosciences APS, priority 2014, published 2022).

“And” between values parts separate entries of the source, which are not always exact repeats. Equal values may be shown once.

The target of assay [1] is proline tolerant tripeptidyl peptidase (TRI083). The experiment in a line: Product inhibition of TRI083 (Ala-Ala-Ala-pNA substrate). Type of assay: biochemical, T. reesei. Conditions: treated as competitive inhibitors. The procedure:
For proline tolerant tripeptidyl peptidase the chromogenic peptide H-Ala-Ala-Ala-pNA was used. The assay was conducted as follows, 27.5 μL of appropriately diluted enzyme was added to 200 μl McIlvaine buffer (20 mM, pH 4.0). After incubation at 50° C. for 5 min, 12.5 μL of the chromogenic peptide solution (5 mg/mL dissolved in dimethyl sulfoxide (DMSO); Sigma-Aldrich, Denmark) were added to the reaction mixture. The reaction was terminated by adding 50 μL of 0.5 M trichloroacetic acid (TCA; Sigma-Aldrich, Denmark). After centrifugation (15,000×g, 5 min), 240 μL of the solution were transferred to a microtiter plate (MTP; Kisker-biotech, Germany) and the absorption was measured in an MTP reader (Molecular Devices, Denmark) at 405 nm. One katal of proteolytic activity was defined as the amount of enzyme required to release 1 mol of p-nitroaniline per second.
Inhibition experiments were conducted with TRI083 and Ala-Ala-Ala-pNA ([…]) as substrate in the assay described in Example 8. The assay was run without inhibitor, with 3.6 mM tripeptide (H-Ala-Ala-Ala-OH; Bachem, Switzerland), 18 mM dipeptide (H-Ala-Ala-OH; Bachem, Switzerland) or 18 mM alanine (Sigma-Aldrich, Denmark). […]
Subsequently, TRI083 was analyzed for product inhibition without inhibitor, with 1 mg/mL H-Ala-Ala-Ala-OH as well with the PepN pre-hydrolyzed H-Ala-Ala-Ala-OH (1 mg/mL).

Assay [2] relates to whey protein isolate (WPI). The assay can be described thus: 15% WPI hydrolysis with endopeptidase and proline tolerant tripeptidyl peptidase homologues. In kind it is biochemical. Conditions: after 7 h of hydrolysis, compared to the reference (endopeptidase); FIG. 14. The procedure:
For WPI hydrolysis, Lacprodan-9224 (Arla Food Ingredients, Denmark) was employed, a 15% (w/w) WPI suspension was prepared in H2Od and adjusted to pH 4.5 with acetic acid (Sigma-Aldrich, Denmark). To prevent microbial growth, 0.0285% (w/w) NaN3 was added. Subsequently, 1% (w/w) Alphalase® FP2 was added and a volume of 200 μl of the WPI suspension was transferred into each of the 96 wells of a microtiter plate (MTP; VWR, Denmark). Following this, 5 μl of each proline tolerant tripeptidyl peptidase homologue containing either 0 or 4375nkatH-Ala-Ala-Ala-pNA/mL were added to the particular wells of the MTP. Then, the MTP was sealed and placed in an incubator at 40° C. (iEMS incubator/shaker HT, Thermo Scientific, Denmark).
[…] Unhydrolyzed, precipitated WPI was removed by filtration (0.22 μm; Corning 3504 filter plate, Corning Incorporated, USA). The filtered WPI hydrolysate was employed for o-phthaldehyde (OPA) derivatization (Nielsen, Petersen et al. 2001). The OPA derivatization was conducted according to Nielsen et al., (2001) with minor modifications. A sample volume of 25 μl was transferred to a well and 175 μl of OPA-reagent, dissolved in trisodium phosphate-dodecahydrate, was added subsequently. The measured absorptions at 340 nm in a MTP reader (VersaMax, Molecular Devices, Denmark) were transformed into serine equivalents employing a serine calibration curve (0-2 mM).

Another assay concerns H-Ala-Ala-Phe-pNA. The experiment in a line: Low pH stability of tripeptidyl peptidases (pH 2.5, 40° C., 60 min), activity on H-Ala-Ala-Phe-pNA. In kind it is biochemical. Conditions: for OD410nm (Final): after pH 2.5, 40° C., 60 min; for OD410nm (Initial): without incubation at 40° C. for 60 min. The procedure: As requirements for utilization of the enzymes in feed for monogastric animals, the enzymes should be active at lower pH. For this reason the number of tripeptidyl peptidases has been tested with the reaction on synthetic substrate AAF (H-Ala-Ala-Phe-pNA. BACHEM, L-1095), at pH 2.5.
The tripeptide substrate AAF was prepared at 2.5 mg/ml in DMSO. Tripeptidyl peptidases were used as broth. The reaction mixture containing 2.5 μl enzyme and 90 μL glycine acetic acid-Tris buffer (each buffer components at 50 mM, pH 2.5) was prepared in 96 well incubation plates.
The incubation plate was mixed and incubated at 40° C. for 60 min. Then 50 μl 0.2M Mes-NaOH pH6.0 was added to each well, mixed at 600 rpm for 2 min. After that, 5 ul of the incubation mixture were taken to 96 well assay plate already filled with 85 μl 0.1M acetic acid buffer, pH4.0 and 5 μl 2.5 mg/ml AAF substrate solution.
The reaction mixture was stirred at 600 rpm for 2 min and read directly in a microplate reader (Molecular Devices, Denmark) at 410 nm at 30° C. every 30 second for 15 min.
To measure initial enzyme activity, similar procedure was performed except the step of enzyme incubation at 40° C. for 60 min.

The mark [3] stands for this setting: listed as TRI071 (pool1) 2% glu/soph.
Where [4] appears, read: listed as TRI071 (pool1) 4% glu/soph.

In the case of `C[C@H](N)C(=O)O` [Alanine, alanine], the Ki entry in assay [1] is reported as “no inhibition at all”.

B1: TRI071: Proline tolerant tripeptidyl peptidase TRI071 (SEQ ID No. 12 or SEQ ID No. 39) (protein, listed as Fusarium oxysporum)
chain 1: KSFSHHAEAPQGWQVQKTAKVASNTQHVFSLALTMQNVDQLESKLLDLSSPDSANYGNWLSHDELTSTFSPSKEAVASVTKWLKSKGIKHYKVNGAFIDFAADVEKANTLLGGDYQYYTKDGQTKLRTLSYSIPDDVAGHVQFVDPSTNFGGTVAFNPVPHPSRTLQERKVSPSKSTVDASCQTSITPSCLKQMYNIGDYTPDAKSGSEIGFSSFLGQAAIYSDVFKFEELFGIPKQNYTTILINNGTDDQNTAHGNFGEANLDAENIVGIAHPLPFKQYITGGSPPFVPNIDQPTEKDNQNEPYVPFFRYLLGQKDLPAVISTSYGDEEDSVPREYATLTCNMIGLLGLRGISVIFSSGDIGVGSGCLAPDYKTVEFNAIFPATCPYLTSVGGTVDVTPEIAWEGSSGGFSKYFPRPSYQDKAIKKYMKTVSKETKKYYGPYTNWEGRGFPDVAGHSVAPDYEVIYNGKQARSGGTSAAAPVWAAIVGLLNDARFKAGKKSLGWLNPLIYKHGPKVLTDITGGYAIGCDGNNTQSGKPEPAGSGLVPGARWNATAGWDPTTGYGTPNFQKLKDLVLSL
chain 2: CQTSITPSCLKQMYNIGDYTPDAKSGSEIGFSSFLGQAAIYSDVFKFEELFGIPKQNYTTILINNGTDDQNTAHGNFGEANLDAENIVGIAHPLPFKQYITGGSPPFVPNIDQPTEKDNQNEPYVPFFRYLLGQKDLPAVISTSYGDEEDSVPREYATLTCNMIGLLGLRGISVIFSSGDIGVGSGCLAPDYKTVEFNAIFPATCPYLTSVGGTVDVTPEIAWEGSSGGFSKYFPRPSYQDKAIKKYMKTVSKETKKYYGPYTNWEGRGFPDVAGHSVAPDYEVIYNGKQARSGGTSAAAPVWAAIVGLLNDARFKAGKKSLGWLNPLIYKHGPKVLTDITGGYAIGCDGNNTQSGKPEPAGSGLVPGARWNATAGWDPTTGYGTPNFQKLKDLVLS
On to B1, for which the “relative increase of SE” value in assay [2] is given as “about 64%”. For the same molecule, in the assay with H-Ala-Ala-Phe-pNA (setting [3]), the “OD410nm (Final)” value was 0.589 and 0.672; the “OD410nm (Initial)” value was 0.757 and 0.815. In the assay with H-Ala-Ala-Phe-pNA (setting [4]), the “OD410nm (Final)” value was 0.453 and 0.6; the “OD410nm (Initial)” value is 0.466 and 0.67.
